Reference: patent JP2005325133A (dated 2005)
cellulose membrane = not defined here

Tests used:
SEQ ID NO 31 = target: T1, SEQ ID NO 31 (human); assay: peptide spot blot, antibody 1 μg/mL, chemiluminescence (LAS2000)
T1 construct: One of 16 peptides covering the polymorphic variants of HLA-DR β chain 61-73; also called 配列番号31
T1 peptide: WNSQKDILEDRRG

SEQ ID NO 29 = target: T2, SEQ ID NO 29 (human); assay: as above
T2 construct: One of 16 peptides covering the polymorphic variants of HLA-DR β chain 61-73; also called 配列番号29
T2 peptide: WNSQKDILEQKRG

SEQ ID NO 34 = target: T3, SEQ ID NO 34 (human); assay: as above
T3 construct: One of 16 peptides covering the polymorphic variants of HLA-DR β chain 61-73; also called 配列番号34
T3 peptide: WNSQKDLLEQRRA

SEQ ID NO 42 = target: T4, SEQ ID NO 42 (human); assay: as above
T4 construct: also called 配列番号42
T4 peptide: WNSQKDLLEQARA

SEQ ID NO 40 = target: T5, SEQ ID NO 40 (human); assay: as above
T5 construct: also called 配列番号40
T5 peptide: WNSQKDALEQRRA

SEQ ID NO 24 = target: T6, SEQ ID NO 24 (human); assay: as above
T6 construct: One of 16 peptides covering the polymorphic variants of HLA-DR β chain 61-73; also called 配列番号24
T6 peptide: WNSQKDFLEDRRA

SEQ ID NO 38 = target: T7, SEQ ID NO 38 (human); assay: as above
T7 construct: One of 16 peptides covering the polymorphic variants of HLA-DR β chain 61-73; also called 配列番号38
T7 peptide: WNSQKDLLERRRA

SEQ ID NO 28 = target: T8, SEQ ID NO 28 (human); assay: as above
T8 construct: One of 16 peptides covering the polymorphic variants of HLA-DR β chain 61-73; also called 配列番号28
T8 peptide: WNSQKDILEDERA

SEQ ID NO 45 = target: T9, SEQ ID NO 45 (human); assay: as above
T9 construct: also called 配列番号45
T9 peptide: WASQKDLLEQRRA

SEQ ID NO 37 = target: T10, SEQ ID NO 37 (human); assay: as above
T10 construct: One of 16 peptides covering the polymorphic variants of HLA-DR β chain 61-73; also called 配列番号37
T10 peptide: WNSQKDLLEDRRA

SEQ ID NO 41 = target: T11, SEQ ID NO 41 (human); assay: as above
T11 construct: also called 配列番号41
T11 peptide: WNSQKDLLEARRA

SEQ ID NO 33 = target: T12, SEQ ID NO 33 (human); assay: as above
T12 construct: One of 16 peptides covering the polymorphic variants of HLA-DR β chain 61-73; also called 配列番号33
T12 peptide: WNSQKDILEQARA

SEQ ID NO 30 = target: T13, SEQ ID NO 30 (human); assay: as above
T13 construct: One of 16 peptides covering the polymorphic variants of HLA-DR β chain 61-73; also called 配列番号30
T13 peptide: WNSQKDILEDRRA

SEQ ID NO 36 = target: T14, SEQ ID NO 36 (human); assay: as above
T14 construct: One of 16 peptides covering the polymorphic variants of HLA-DR β chain 61-73; also called 配列番号36
T14 peptide: WNSQKDLLEQKRG

SEQ ID NO 26 = target: T15, SEQ ID NO 26 (human); assay: as above
T15 construct: One of 16 peptides covering the polymorphic variants of HLA-DR β chain 61-73; also called 配列番号26
T15 peptide: WNSQKDFLEDERA

SEQ ID NO 27 = target: T16, SEQ ID NO 27 (human); assay: as above
T16 construct: One of 16 peptides covering the polymorphic variants of HLA-DR β chain 61-73; also called 配列番号27
T16 peptide: WNSQKDFLEQARA

SEQ ID NO 39 = target: T17, SEQ ID NO 39 (human); assay: as above
T17 construct: One of 16 peptides covering the polymorphic variants of HLA-DR β chain 61-73; also called 配列番号39
T17 peptide: WNSQKDLLEDERA

SEQ ID NO 43 = target: T18, SEQ ID NO 43 (human); assay: as above
T18 construct: also called 配列番号43
T18 peptide: WNSQKDLLEQRRG

SEQ ID NO 25 = target: T19, SEQ ID NO 25 (human); assay: as above
T19 construct: One of 16 peptides covering the polymorphic variants of HLA-DR β chain 61-73; also called 配列番号25
T19 peptide: WNSQKDFLERRRA

SEQ ID NO 47 = target: T20, SEQ ID NO 47 (human); assay: as above
T20 construct: also called 配列番号47
T20 peptide: WNSAKDLLEQRRA

SEQ ID NO 44 = target: T21, SEQ ID NO 44 (human); assay: as above
T21 construct: also called 配列番号44
T21 peptide: ANSQKDLLEQRRA

SEQ ID NO 46 = target: T22, SEQ ID NO 46 (human); assay: as above
T22 construct: also called 配列番号46
T22 peptide: WNAQKDLLEQRRA

SEQ ID NO 35 = target: T23, SEQ ID NO 35 (human); assay: as above
T23 construct: One of 16 peptides covering the polymorphic variants of HLA-DR β chain 61-73; also called 配列番号35
T23 peptide: WNSQKDLLEQARA

SEQ ID NO 32 = target: T24, SEQ ID NO 32 (human); assay: as above
T24 construct: One of 16 peptides covering the polymorphic variants of HLA-DR β chain 61-73; also called 配列番号32
T24 peptide: WNSQKDILEDKRA

[1] = target: T25, 13-mer peptide, amino acids 61-73 of HLA-DR β chain (DRB1*15011), SEQ ID NO 82 (human, reading uncertain); assay: SPOT peptide membrane, chemiluminescence (LumiImager)
T25 construct: SPOT peptide on cellulose membrane (JERINI); also called 配列番号82; 61番目〜73番目
T25 peptide: Ac-WNSQKDILEQARA-{cellulose membrane}

[2] = target: T26, 13-mer peptide, amino acids 65-77 of HLA-DR β chain (DRB1*15011), SEQ ID NO 84 (human, reading uncertain); assay: as above
T26 construct: SPOT peptide; also called 配列番号84; 65番目〜77番目
T26 peptide: Ac-KDILEQARAAVDT-{cellulose membrane}

[3] = target: T27, 13-mer peptide, amino acids 63-75 of HLA-DR β chain (DRB1*15011), SEQ ID NO 83 (human, reading uncertain); assay: as above
T27 construct: SPOT peptide; also called 配列番号83; 63番目〜75番目
T27 peptide: Ac-SQKDILEQARAAV-{cellulose membrane}

SEQ ID NO 49 = target: T28, SEQ ID NO 49 (human); assay: peptide spot blot, chemiluminescence (LAS2000)
T28 construct: also called 配列番号49
T28 peptide: WNSQKALLEQRRA

SEQ ID NO 48 = target: T29, SEQ ID NO 48 (human); assay: peptide spot blot, chemiluminescence (LAS2000)
T29 construct: also called 配列番号48
T29 peptide: WNSQADLLEQRRA

SEQ ID NO 50 = target: T30, SEQ ID NO 50 (human); assay: peptide spot blot, chemiluminescence (LAS2000)
T30 construct: also called 配列番号50
T30 peptide: WNSQKDLLAQRRA

SEQ ID NO 51 = target: T31, SEQ ID NO 51 (human); assay: peptide spot blot, chemiluminescence (LAS2000)
T31 construct: also called 配列番号51
T31 peptide: WNSQKDLLEQRAA

[4] = target: T32, HLA-DR DRB1*15011/DRA*0101 forcibly expressed on L cells (ATCC CCL-1) (human, UniProt P01903 26-254; P01911 30-266); assay: flow cytometry on transfected L cells
T32 construct: whole, on cells

[5] = target: T25, 13-mer peptide, amino acids 61-73 of …; assay: SPOT peptide membrane

B1: human anti-HLA-DR monoclonal antibody HD8 (hybridoma HD8, FERM BP-7773) (antibody, V domains shown)
VH: QVQLQHSGPGLVKPSQTLSLTCAISGDSVSSNSASWNWIRQSPSRGLEWLGRTYYRSKWYNDYAVSVKSRIVINPDTSKNQFSLQLNSVTPEDTAVYYCARENFYGSETCHKKYYCYGMDVWGQGTTVTVSS
VL: AIQLTQSPSSLSASVGDRVTITCRASQGISSALAWYQQKPGKAPKLLIYDASSLESGVPSRFSGSGSGTDFTLTISSLQPEDFATYYCQQFNSFPLTFGGGTKVEIK
notes: Human IgG with kappa light chain from a KM mouse hybridoma
What does the source list for B1?
binding result (SEQ ID NO 31): binds; binding result (SEQ ID NO 29): binds; binding result (SEQ ID NO 34): binds; binding result (SEQ ID NO 42): binds; binding result (SEQ ID NO 40): binds; binding result (SEQ ID NO 24): binds; binding result (SEQ ID NO 38): binds; binding result (SEQ ID NO 28): binds; binding result (SEQ ID NO 45): binds; binding result (SEQ ID NO 37): binds; binding result (SEQ ID NO 41): binds; binding result (SEQ ID NO 33): binds; binding result (SEQ ID NO 30): binds; binding result (SEQ ID NO 36): binds; binding result (SEQ ID NO 26): binds; binding result (SEQ ID NO 27): binds; binding result (SEQ ID NO 39): binds; binding result (SEQ ID NO 43): binds; binding result (SEQ ID NO 25): binds; binding result (SEQ ID NO 47): binds; binding result (SEQ ID NO 44): binds; binding result (SEQ ID NO 46): binds; binding result (SEQ ID NO 35): binds; binding result (SEQ ID NO 32): binds; binding result [1]: binds; binding result [2]: binds; binding result [3]: binds; binding result (SEQ ID NO 49): no binding (tested: 1μg/mL); binding result (SEQ ID NO 48): no binding (tested: 1μg/mL); binding result (SEQ ID NO 50): no binding (tested: 1μg/mL); binding result (SEQ ID NO 51): no binding (tested: 1μg/mL); binding result [4]: binds

B2: human anti-HLA-DR monoclonal antibody HD4 (hybridoma HD4, FERM BP-7771) (antibody, V domains shown)
VH: EVQLLESGGGLVQPGGSLRLSCAASGFTFSSYAMTWVRQAPGKGLEWVSGISGGGDSTYYADSVKGRFTISRDNSKNTLYLQMNSLRAEDTAVYYCARDHGSGSYYPYWFDYWGQGTLVTVSS
VL: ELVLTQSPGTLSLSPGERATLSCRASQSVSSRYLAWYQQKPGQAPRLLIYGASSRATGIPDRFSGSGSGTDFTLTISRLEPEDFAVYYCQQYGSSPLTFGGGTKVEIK
notes: as for B1
What does the source list for B2?
binding result [5]: binds; binding result [2]: binds; binding result [3]: binds
